Experimental data: patent US20200165325A1

Assays:
[1] = target: Env (gp120) of HIV-1 strain 0330.v4.c3 (HIV-1)
[2] = target: Env (gp120) of HIV-1 strain 0815.v3.c3 (HIV-1)
[3] = target: Env (gp120) of HIV-1 strain 1006_11_C3_1601 (HIV-1)
[4] = target: Env (gp120) of HIV-1 strain 1056_10_TA11_1826 (HIV-1)
[5] = target: Env (gp120) of HIV-1 strain 211-9 (HIV-1)
[6] = target: Env (gp120) of HIV-1 strain 231966.c02 (HIV-1)
[7] = target: Env (gp120) of HIV-1 strain 3103.v3.c10 (HIV-1)
[8] = target: Env (gp120) of HIV-1 strain 3301.v1.c24 (HIV-1)
[9] = target: Env (gp120) of HIV-1 strain 3415.v1.c1 (HIV-1)
[10] = target: Env (gp120) of HIV-1 strain 3718.v3.c11 (HIV-1)
[11] = target: Env (gp120) of HIV-1 strain 3817.v2.c59 (HIV-1)
[12] = target: Env (gp120) of HIV-1 strain 620345.c01 (HIV-1)
[13] = target: Env (gp120) of HIV-1 strain 62357_14_D3_4589 (HIV-1)
[14] = target: Env (gp120) of HIV-1 strain 6480.v4.c25 (HIV-1)
[15] = target: Env (gp120) of HIV-1 strain 6540.v4.c1 (HIV-1)
[16] = target: Env (gp120) of HIV-1 strain 6545.v4.c1 (HIV-1)
[17] = target: Env (gp120) of HIV-1 strain 6811.v7.c18 (HIV-1)
[18] = target: Env (gp120) of HIV-1 strain 703357.C02 (HIV-1)
[19] = target: Env (gp120) of HIV-1 strain 928-28 (HIV-1)
[20] = target: Env (gp120) of HIV-1 strain CAAN5342.A2 (HIV-1)
[21] = target: Env (gp120) of HIV-1 strain CNE17 (HIV-1)
[22] = target: Env (gp120) of HIV-1 strain CNE20 (HIV-1)
[23] = target: Env (gp120) of HIV-1 strain CNE21 (HIV-1)
[24] = target: Env (gp120) of HIV-1 strain CNE30 (HIV-1)
[25] = target: Env (gp120) of HIV-1 strain Ce0393_C3 (HIV-1)
[26] = target: Env (gp120) of HIV-1 strain Ce0682_E4 (HIV-1)
[27] = target: Env (gp120) of HIV-1 strain Ce1176_A3 (HIV-1)
[28] = target: Env (gp120) of HIV-1 strain Ce2010_F5 (HIV-1)
[29] = target: Env (gp120) of HIV-1 strain Ce2060_G9 (HIV-1)
[30] = target: Env (gp120) of HIV-1 strain Ce703010054_2A2 (HIV-1)
[31] = target: Env (gp120) of HIV-1 strain Du156.12 (HIV-1)
[32] = target: Env (gp120) of HIV-1 strain HIV-16845-2.22 (HIV-1)
[33] = target: Env (gp120) of HIV-1 strain P1981_C5_3 (HIV-1)
[34] = target: Env (gp120) of HIV-1 strain PVO.4 (HIV-1)
[35] = target: Env (gp120) of HIV-1 strain Q461.e2 (HIV-1)
[36] = target: Env (gp120) of HIV-1 strain Q769.d22 (HIV-1)
[37] = target: Env (gp120) of HIV-1 strain Q842.d12 (HIV-1)
[38] = target: Env (gp120) of HIV-1 strain QH0692.42 (HIV-1)
[39] = target: Env (gp120) of HIV-1 strain R1166.c01 (HIV-1)
[40] = target: Env (gp120) of HIV-1 strain T257-31 (HIV-1)
[41] = target: Env (gp120) of HIV-1 strain T278-50 (HIV-1)
[42] = target: Env (gp120) of HIV-1 strain THRO4156.18 (HIV-1)
[43] = target: Env (gp120) of HIV-1 strain TRO.11 (HIV-1)
[44] = target: Env (gp120) of HIV-1 strain X1193_c1 (HIV-1)
[45] = target: Env (gp120) of HIV-1 strain X1254_c3 (HIV-1)
[46] = target: Env (gp120) of HIV-1 strain X2131_C1_B5 (HIV-1)
[47] = target: Env (gp120) of HIV-1 strain ZM214M.PL15 (HIV-1)
[48] = target: Env (gp120) of HIV-1 strain ZM233M.PB6 (HIV-1)
[49] = target: Env (gp120) of HIV-1 strain ZM249M.PL1 (HIV-1)
[50] = target: Env (gp120) of HIV-1 strain ZM53M.PB12 (HIV-1)

NIH45-46 IgG (antibody)
neutralization IC50 [1]: 0.09 µg/mL | neutralization IC50 [2]: 0.014 µg/mL | neutralization IC50 [3]: 0.027 µg/mL | neutralization IC50 [4]: 0.094 µg/mL | neutralization IC50 [5]: > 50 µg/mL | neutralization IC50 [6]: 1.64 µg/mL | neutralization IC50 [7]: 1.77 µg/mL | neutralization IC50 [8]: 0.009 µg/mL | neutralization IC50 [9]: 0.022 µg/mL | neutralization IC50 [10]: 19.6 µg/mL | neutralization IC50 [11]: > 50 µg/mL | neutralization IC50 [12]: > 50 µg/mL | neutralization IC50 [13]: 0.06 µg/mL | neutralization IC50 [14]: 0.032 µg/mL | neutralization IC50 [15]: > 50 µg/mL | neutralization IC50 [16]: > 50 µg/mL | neutralization IC50 [17]: 0.035 µg/mL | neutralization IC50 [18]: 19.2 µg/mL | neutralization IC50 [19]: 0.23 µg/mL | neutralization IC50 [20]: 0.15 µg/mL | neutralization IC50 [21]: 0.261 µg/mL | neutralization IC50 [22]: 7.83 µg/mL | neutralization IC50 [23]: 6.01 µg/mL | neutralization IC50 [24]: 0.309 µg/mL | neutralization IC50 [25]: 0.334 µg/mL | neutralization IC50 [26]: 0.054 µg/mL | neutralization IC50 [27]: 0.93 µg/mL | neutralization IC50 [28]: 0.101 µg/mL | neutralization IC50 [29]: 0.058 µg/mL | neutralization IC50 [30]: 0.159 µg/mL | neutralization IC50 [31]: 0.02 µg/mL | neutralization IC50 [32]: 5 µg/mL | neutralization IC50 [33]: 0.08 µg/mL | neutralization IC50 [34]: 0.12 µg/mL | neutralization IC50 [35]: 0.076 µg/mL | neutralization IC50 [36]: 0.009 µg/mL | neutralization IC50 [37]: 0.031 µg/mL | neutralization IC50 [38]: 0.72 µg/mL | neutralization IC50 [39]: 0.31 µg/mL | neutralization IC50 [40]: 0.49 µg/mL | neutralization IC50 [41]: > 50 µg/mL | neutralization IC50 [42]: 1.91 µg/mL | neutralization IC50 [43]: 1.61 µg/mL | neutralization IC50 [44]: 0.021 µg/mL | neutralization IC50 [45]: 0.032 µg/mL | neutralization IC50 [46]: 0.23 µg/mL | neutralization IC50 [47]: 0.17 µg/mL | neutralization IC50 [48]: 2.5 µg/mL | neutralization IC50 [49]: 0.017 µg/mL | neutralization IC50 [50]: 0.175 µg/mL

NIH45-46^G54F IgG (antibody)
neutralization IC50 [1]: 0.04 µg/mL | neutralization IC50 [2]: < 0.001 µg/mL | neutralization IC50 [3]: 0.003 µg/mL | neutralization IC50 [4]: 0.064 µg/mL | neutralization IC50 [5]: > 50 µg/mL | neutralization IC50 [6]: 0.06 µg/mL | neutralization IC50 [7]: 0.37 µg/mL | neutralization IC50 [8]: 0.001 µg/mL | neutralization IC50 [9]: < 0.001 µg/mL | neutralization IC50 [10]: 0.32 µg/mL | neutralization IC50 [11]: > 50 µg/mL | neutralization IC50 [12]: > 50 µg/mL | neutralization IC50 [13]: 0.04 µg/mL | neutralization IC50 [14]: 0.014 µg/mL | neutralization IC50 [15]: > 50 µg/mL | neutralization IC50 [16]: > 50 µg/mL | neutralization IC50 [17]: 0.017 µg/mL | neutralization IC50 [18]: 7.91 µg/mL | neutralization IC50 [19]: 0.11 µg/mL | neutralization IC50 [20]: 0.1 µg/mL | neutralization IC50 [21]: 0.075 µg/mL | neutralization IC50 [22]: 0.53 µg/mL | neutralization IC50 [23]: 0.12 µg/mL | neutralization IC50 [24]: 0.1 µg/mL | neutralization IC50 [25]: 0.04 µg/mL | neutralization IC50 [26]: 0.011 µg/mL | neutralization IC50 [27]: 0.24 µg/mL | neutralization IC50 [28]: 0.046 µg/mL | neutralization IC50 [29]: 0.022 µg/mL | neutralization IC50 [30]: 0.02 µg/mL | neutralization IC50 [31]: < 0.001 µg/mL | neutralization IC50 [32]: 0.59 µg/mL | neutralization IC50 [33]: 0.03 µg/mL | neutralization IC50 [34]: 0.07 µg/mL | neutralization IC50 [35]: 0.03 µg/mL | neutralization IC50 [36]: 0.005 µg/mL | neutralization IC50 [37]: 0.011 µg/mL | neutralization IC50 [38]: 0.56 µg/mL | neutralization IC50 [39]: 0.4 µg/mL | neutralization IC50 [40]: 0.17 µg/mL | neutralization IC50 [41]: > 50 µg/mL | neutralization IC50 [42]: 0.89 µg/mL | neutralization IC50 [43]: 0.11 µg/mL | neutralization IC50 [44]: < 0.001 µg/mL | neutralization IC50 [45]: 0.011 µg/mL | neutralization IC50 [46]: 0.1 µg/mL | neutralization IC50 [47]: 0.09 µg/mL | neutralization IC50 [48]: 0.22 µg/mL | neutralization IC50 [49]: 0.004 µg/mL | neutralization IC50 [50]: 0.08 µg/mL
